Patent US20140242084A1 (published 2014)
Blank lines part the entries; values can stand above or below the binder they belong to.

B3: recombinant human cANGPTL4 (C-terminal region of angiopoietin-like 4) (ligand, UniProt Q9BY76 186-406, looked up)
chain: RDCQELFQVGERQSGLFEIQPQGSPPFLVNCKMTSDGGWTVIQRRHDGSVDFNRPWEAYKAGFGDPHGEFWLGLEKVHSITGDRNSRLAVQLRDWDGNAELLQFSVHLGGEDTAYSLQLTAPVAGQLGATTVPPSGLSVPFSTWDQDHDLRRDKNCAKSLSGGWWFGTCSHSNLNGQYFRSIPQQRQKLKKGIFWKTWRGRYYPLQATTMLIQPMAAEAAS
notes: domain: c terminal region; the tag is not specified; also called rh-cANGPTL4; rhcANGPTL4
B4: claudin-5 of primary human microvascular endothelial cells (HMVECs) (other, UniProt O00501 1-218, looked up)
chain: MGSAALEILGLVLCLVGWGGLILACGLPMWQVTAFLDHNIVTAQTTWKGLWMSCVVQSTGHMQCKVYDSVLALSTEVQAARALTVSAVLLAFVALFVTLAGAQCTTCVAPGPAKARVALTGGVLYLFCGLLALVPLCWFANIVVREFYDPSVPVSQKYELGAALYIGWAATALLMVGGCLLCCGAWVCTGRPDLSFPVKYSAPRRPTATGDYDKKNYV
notes: whole, on cells; Endogenous protein, detected by in situ PLA and by co-immunoprecipitation

Legend:
[1] = target: B3; assay: SPR, immobilised cANGPTL4 (FIG. 2B)
Procedure: (§1) SPR was carried out as previously described17,18 using a BIAcore 2000 system (BIAcore, Uppsala, Sweden). Six concentrations (0.16, 0.32, 0.63, 1.25, 2.50 and 5.0 μM) of recombinant integrin β1, first extracellular domain of VE-cadherin (ECD1), extracellular repeat 1 domain of VE-cadherin (EC1), occludin or JAM-A were used. Integrin was expressed in Drosophila S2 cells17 and various extracellular domains of VE-cadherin and claudin-5 purchased from Abnova. Global fitting of the SPR data was performed as previously described to determine the KD. Preinjection or preincubation with the indicated antibodies or preimmune IgG was performed to determine specific interactions. Each sensorgram was corrected by subtracting a sensorgram obtained from a reference flow cell with no immobilized protein. […] Values are mean±S.D. (n=3)

[2] = target: B3; assay: SPR, immobilised cANGPTL4
Procedure: as §1

[3] = target: T1, VE-cadherin of primary human microvascular endothelial cells (HMVECs) (human, UniProt P33151 48-784); assay: kinetic PLA in HMVECs in the presence of anti-integrin antibody, against the zero time point (FIG. 4C)
T1 construct: whole, on cells; Endogenous protein, detected by in situ PLA and by co-immunoprecipitation
T1 sequence (looked up): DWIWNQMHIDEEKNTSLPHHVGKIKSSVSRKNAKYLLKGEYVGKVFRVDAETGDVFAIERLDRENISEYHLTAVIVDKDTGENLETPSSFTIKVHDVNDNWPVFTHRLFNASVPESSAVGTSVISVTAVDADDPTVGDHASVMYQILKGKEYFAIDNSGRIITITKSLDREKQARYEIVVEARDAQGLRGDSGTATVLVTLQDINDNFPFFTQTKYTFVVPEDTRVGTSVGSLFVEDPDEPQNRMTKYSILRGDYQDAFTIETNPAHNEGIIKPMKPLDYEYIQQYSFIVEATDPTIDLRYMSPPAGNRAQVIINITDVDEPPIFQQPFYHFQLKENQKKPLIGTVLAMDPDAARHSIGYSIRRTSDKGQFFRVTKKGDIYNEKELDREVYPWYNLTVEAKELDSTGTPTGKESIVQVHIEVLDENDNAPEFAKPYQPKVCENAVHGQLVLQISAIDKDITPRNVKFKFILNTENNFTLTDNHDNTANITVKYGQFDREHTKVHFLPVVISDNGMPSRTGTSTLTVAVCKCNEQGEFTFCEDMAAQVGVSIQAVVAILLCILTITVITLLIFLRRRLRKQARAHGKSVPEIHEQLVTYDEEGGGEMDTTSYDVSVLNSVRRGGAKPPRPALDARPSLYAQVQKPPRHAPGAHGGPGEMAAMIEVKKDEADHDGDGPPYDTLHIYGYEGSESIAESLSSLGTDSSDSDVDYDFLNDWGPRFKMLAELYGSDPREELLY
Procedure: (§2) (A, B and D, E) Immunofluorescence staining for ZO-1 (A, D) and transendothelial electrical resistance (TER) measurement (B, E) in confluent HMVEC monolayer. […] Treatments were for 3 or 6 h. HMVECs were counterstained with DAPI (blue) for nuclei and phalloidin (red) for actin stress fibers. Scale bar: 40 μm. White arrows indicate endothelial junction lesions. Data (means±S.D.) from 3 independent experiments. *, P<0.05; **, P<0.01. […] Values (means±S.D.) represent mean fold change in the number of interactions compared to the zero time point, as determined from n=3 independent experiments (˜600 HMVECs) using BlobFinder.

[4] = target: B4; assay: as above
Procedure: as §2

[5] = target: integrin β3 (control of the interaction analysis in paragraph 126) (UniProt P05106 27-718, limits assumed); assay: SPR control (sentence also cites references 16, 17)
[6] = target: T1, VE-cadherin of primary human …; assay: in situ proximity ligation assay on ECs, 250 cells
[7] = target: T2, integrin α5β1 of primary human microvascular endothelial cells (HMVECs) (human, UniProt P08648 42-1049; P05556 21-798); assay: in situ proximity ligation assay on ECs, 250 cells
T2 construct: whole, on cells; Endogenous protein, detected by in situ PLA and by co-immunoprecipitation from HMVEC lysates

[8] = target: B4; assay: in situ proximity ligation assay on ECs, 250 cells
claudin-5 (SPR analyte) = claudin-5 (SPR analyte) (UniProt O00501); assay: SPR (BIAcore 2000), immobilised cANGPTL4, global fit
[9] = target: recombinant integrin α5β1 (UniProt P08648); assay: as above
occludin = target: T3, occludin (UniProt Q16625 1-522, limits assumed); assay: SPR, immobilised cANGPTL4
T3 sequence (looked up): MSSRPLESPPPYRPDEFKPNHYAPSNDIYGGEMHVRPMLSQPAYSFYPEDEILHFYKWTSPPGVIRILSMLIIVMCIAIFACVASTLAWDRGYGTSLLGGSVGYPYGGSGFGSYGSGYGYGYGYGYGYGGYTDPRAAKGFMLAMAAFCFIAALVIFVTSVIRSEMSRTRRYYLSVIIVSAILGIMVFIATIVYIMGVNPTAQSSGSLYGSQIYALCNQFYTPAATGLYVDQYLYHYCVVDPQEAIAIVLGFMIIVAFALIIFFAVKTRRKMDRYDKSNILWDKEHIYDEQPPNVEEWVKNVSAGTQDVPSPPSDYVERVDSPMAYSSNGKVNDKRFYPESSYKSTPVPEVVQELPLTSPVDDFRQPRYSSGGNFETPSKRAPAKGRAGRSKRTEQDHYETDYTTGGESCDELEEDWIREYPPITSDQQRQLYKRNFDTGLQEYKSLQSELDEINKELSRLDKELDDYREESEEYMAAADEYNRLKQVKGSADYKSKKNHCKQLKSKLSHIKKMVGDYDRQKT
Procedure: as §1

integrin β3 of HMVECs = target: T4, integrin β3 of HMVECs (human, UniProt P05106 27-788); assay: co-immunoprecipitation with anti-cANGPTL4 from lysates of rh-cANGPTL4-treated HMVECs (FIG. 5B)
T4 construct: whole, on cells

junction protein JAM-C = target: T5, junction protein JAM-C (human, UniProt Q9BX67 32-310); assay: as above
T5 construct: whole, on cells
T5 sequence (looked up): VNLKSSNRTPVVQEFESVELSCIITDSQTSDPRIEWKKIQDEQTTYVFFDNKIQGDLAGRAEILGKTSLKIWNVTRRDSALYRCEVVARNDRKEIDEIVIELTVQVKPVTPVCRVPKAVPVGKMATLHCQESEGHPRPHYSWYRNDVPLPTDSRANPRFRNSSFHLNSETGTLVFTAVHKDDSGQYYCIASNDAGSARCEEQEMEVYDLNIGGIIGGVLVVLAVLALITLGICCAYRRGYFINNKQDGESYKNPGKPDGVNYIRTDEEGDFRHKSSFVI

Tie2 = target: T6, Tie2 (human, UniProt Q02763 23-1124); assay: as above
T6 construct: whole, on cells

Tie1 = target: T7, Tie1 (human, UniProt P35590 22-1138); assay: as above
T7 construct: whole, on cells

[10] = target: T8, VE-cadherin (SPR analyte) (UniProt P33151 48-599, limits assumed); assay: SPR (BIAcore 2000), immobilised cANGPTL4, global fit
T8 sequence (looked up): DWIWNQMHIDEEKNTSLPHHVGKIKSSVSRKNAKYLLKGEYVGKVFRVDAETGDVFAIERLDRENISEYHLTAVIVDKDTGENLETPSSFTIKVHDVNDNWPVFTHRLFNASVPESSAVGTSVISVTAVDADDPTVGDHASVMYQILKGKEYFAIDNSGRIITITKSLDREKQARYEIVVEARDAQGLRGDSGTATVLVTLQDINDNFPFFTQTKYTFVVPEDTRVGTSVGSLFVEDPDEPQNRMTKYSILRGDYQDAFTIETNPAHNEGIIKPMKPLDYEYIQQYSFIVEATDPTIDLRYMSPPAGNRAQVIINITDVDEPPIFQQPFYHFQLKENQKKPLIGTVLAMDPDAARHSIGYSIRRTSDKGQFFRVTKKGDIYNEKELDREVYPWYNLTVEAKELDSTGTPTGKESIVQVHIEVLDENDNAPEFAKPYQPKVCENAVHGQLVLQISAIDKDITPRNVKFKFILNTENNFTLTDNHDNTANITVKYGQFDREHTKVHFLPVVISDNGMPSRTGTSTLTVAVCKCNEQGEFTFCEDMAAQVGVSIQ
Procedure: as §1

[11] = target: B3; assay: figure legend: kinetic PLA and co-immunoprecipitation in HMVECs
Procedure: Values (means±S.D.) represent mean fold change in the number of interactions compared to the zero time point, as determined from n=3 independent experiments (600 HMVECs) using BlobFinder. […] Protein lysates were collected every 10 minutes (0-180 minutes). Values below each band represent the mean fold change in protein expression level compared with the cognate zero time point (n=3). *, P<0.05; **, P<0.01.

T4 sequence (P05106 27-788): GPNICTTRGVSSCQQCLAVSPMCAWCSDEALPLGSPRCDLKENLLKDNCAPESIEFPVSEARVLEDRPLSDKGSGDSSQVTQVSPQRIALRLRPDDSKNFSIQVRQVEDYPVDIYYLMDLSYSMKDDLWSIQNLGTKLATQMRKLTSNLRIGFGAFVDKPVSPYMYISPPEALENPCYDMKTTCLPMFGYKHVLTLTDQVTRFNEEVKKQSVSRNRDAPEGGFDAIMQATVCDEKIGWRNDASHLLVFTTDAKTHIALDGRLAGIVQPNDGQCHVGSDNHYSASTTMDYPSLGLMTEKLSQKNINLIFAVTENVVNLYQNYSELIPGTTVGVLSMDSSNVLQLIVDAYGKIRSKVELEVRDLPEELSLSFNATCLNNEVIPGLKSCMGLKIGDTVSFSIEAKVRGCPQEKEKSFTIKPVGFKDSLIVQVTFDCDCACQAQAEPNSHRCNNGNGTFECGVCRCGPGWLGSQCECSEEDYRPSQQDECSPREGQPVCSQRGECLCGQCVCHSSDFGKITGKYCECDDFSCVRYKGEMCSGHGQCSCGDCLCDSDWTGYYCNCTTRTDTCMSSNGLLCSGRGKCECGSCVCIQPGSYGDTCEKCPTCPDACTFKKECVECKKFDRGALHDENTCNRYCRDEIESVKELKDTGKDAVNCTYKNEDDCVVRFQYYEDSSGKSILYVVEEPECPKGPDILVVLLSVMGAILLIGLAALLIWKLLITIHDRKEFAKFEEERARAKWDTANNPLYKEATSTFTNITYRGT
integrin β3 (control of the interaction analysis in paragraph 126), sequence (P05106 27-718 limits assumed): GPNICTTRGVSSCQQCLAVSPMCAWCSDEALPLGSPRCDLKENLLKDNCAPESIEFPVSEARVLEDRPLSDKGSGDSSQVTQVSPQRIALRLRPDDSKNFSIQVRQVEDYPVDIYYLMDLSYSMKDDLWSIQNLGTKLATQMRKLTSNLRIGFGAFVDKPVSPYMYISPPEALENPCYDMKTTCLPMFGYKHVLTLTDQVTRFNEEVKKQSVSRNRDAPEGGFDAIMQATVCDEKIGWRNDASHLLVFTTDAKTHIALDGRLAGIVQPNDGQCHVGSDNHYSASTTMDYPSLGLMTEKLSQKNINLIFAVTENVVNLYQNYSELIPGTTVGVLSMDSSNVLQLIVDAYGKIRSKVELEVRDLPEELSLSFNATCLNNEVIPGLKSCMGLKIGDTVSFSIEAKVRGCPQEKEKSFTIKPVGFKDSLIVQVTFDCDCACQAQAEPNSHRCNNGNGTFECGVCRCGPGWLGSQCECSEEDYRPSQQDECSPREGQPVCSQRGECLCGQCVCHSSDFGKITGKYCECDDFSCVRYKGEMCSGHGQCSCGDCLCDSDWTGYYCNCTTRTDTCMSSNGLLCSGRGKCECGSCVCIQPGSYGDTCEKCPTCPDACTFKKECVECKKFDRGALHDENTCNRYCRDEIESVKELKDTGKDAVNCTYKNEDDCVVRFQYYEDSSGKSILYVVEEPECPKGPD
T6 sequence (Q02763 23-1124): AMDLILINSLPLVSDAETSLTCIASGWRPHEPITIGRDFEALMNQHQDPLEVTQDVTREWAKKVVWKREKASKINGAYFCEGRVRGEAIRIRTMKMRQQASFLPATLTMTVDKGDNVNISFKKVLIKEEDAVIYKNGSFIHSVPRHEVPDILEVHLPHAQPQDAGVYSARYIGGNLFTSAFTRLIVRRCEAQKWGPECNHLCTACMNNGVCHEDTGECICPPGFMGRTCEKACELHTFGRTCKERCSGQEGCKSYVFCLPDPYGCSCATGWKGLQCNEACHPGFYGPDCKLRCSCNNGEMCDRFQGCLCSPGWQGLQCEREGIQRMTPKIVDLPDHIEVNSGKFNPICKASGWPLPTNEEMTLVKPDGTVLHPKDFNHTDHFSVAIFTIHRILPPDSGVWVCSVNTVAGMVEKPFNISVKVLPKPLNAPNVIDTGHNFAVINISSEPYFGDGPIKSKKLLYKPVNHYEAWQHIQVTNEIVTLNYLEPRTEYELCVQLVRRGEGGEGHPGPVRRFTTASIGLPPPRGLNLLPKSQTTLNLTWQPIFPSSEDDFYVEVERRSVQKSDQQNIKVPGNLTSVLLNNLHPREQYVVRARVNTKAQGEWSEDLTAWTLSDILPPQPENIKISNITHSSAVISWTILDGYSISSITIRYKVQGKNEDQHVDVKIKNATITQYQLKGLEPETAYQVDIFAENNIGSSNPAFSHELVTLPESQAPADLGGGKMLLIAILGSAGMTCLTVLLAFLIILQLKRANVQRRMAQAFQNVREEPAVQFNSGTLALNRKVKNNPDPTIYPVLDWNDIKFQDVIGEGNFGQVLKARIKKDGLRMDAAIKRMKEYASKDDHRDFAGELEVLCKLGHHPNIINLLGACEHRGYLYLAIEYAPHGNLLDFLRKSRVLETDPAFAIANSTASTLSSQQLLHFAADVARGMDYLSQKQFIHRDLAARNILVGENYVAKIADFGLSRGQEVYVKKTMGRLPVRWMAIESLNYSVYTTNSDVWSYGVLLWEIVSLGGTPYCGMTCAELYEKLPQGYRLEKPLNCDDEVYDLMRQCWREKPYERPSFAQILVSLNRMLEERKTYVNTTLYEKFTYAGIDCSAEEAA
T2 sequence (P08648 42-1049, chain 1 of 2): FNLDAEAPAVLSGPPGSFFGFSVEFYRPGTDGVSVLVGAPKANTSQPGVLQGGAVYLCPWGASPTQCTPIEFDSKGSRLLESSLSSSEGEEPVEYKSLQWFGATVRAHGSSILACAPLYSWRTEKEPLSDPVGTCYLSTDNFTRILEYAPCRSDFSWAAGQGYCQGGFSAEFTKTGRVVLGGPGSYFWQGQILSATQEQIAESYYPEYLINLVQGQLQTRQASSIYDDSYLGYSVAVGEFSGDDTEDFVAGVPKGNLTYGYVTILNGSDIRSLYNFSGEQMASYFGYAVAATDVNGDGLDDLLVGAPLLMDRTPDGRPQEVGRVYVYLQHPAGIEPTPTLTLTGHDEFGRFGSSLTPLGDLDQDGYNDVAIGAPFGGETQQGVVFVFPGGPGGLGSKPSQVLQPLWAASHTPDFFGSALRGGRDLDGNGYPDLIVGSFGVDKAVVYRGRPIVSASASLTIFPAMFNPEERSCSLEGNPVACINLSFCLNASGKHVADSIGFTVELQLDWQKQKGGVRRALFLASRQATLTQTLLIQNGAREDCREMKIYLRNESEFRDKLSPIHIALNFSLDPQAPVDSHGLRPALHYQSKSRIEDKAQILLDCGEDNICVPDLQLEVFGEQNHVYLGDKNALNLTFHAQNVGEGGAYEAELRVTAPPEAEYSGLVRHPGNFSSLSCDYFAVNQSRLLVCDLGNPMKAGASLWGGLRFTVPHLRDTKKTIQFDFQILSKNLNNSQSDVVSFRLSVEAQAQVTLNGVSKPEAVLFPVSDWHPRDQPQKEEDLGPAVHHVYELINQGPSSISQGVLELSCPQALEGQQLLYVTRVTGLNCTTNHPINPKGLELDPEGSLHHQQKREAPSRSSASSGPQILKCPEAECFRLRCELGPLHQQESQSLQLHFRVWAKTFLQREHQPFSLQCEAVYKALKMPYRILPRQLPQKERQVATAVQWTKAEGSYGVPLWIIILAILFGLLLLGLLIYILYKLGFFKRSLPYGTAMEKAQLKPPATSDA
T2 sequence (P05556 21-798, chain 2 of 2): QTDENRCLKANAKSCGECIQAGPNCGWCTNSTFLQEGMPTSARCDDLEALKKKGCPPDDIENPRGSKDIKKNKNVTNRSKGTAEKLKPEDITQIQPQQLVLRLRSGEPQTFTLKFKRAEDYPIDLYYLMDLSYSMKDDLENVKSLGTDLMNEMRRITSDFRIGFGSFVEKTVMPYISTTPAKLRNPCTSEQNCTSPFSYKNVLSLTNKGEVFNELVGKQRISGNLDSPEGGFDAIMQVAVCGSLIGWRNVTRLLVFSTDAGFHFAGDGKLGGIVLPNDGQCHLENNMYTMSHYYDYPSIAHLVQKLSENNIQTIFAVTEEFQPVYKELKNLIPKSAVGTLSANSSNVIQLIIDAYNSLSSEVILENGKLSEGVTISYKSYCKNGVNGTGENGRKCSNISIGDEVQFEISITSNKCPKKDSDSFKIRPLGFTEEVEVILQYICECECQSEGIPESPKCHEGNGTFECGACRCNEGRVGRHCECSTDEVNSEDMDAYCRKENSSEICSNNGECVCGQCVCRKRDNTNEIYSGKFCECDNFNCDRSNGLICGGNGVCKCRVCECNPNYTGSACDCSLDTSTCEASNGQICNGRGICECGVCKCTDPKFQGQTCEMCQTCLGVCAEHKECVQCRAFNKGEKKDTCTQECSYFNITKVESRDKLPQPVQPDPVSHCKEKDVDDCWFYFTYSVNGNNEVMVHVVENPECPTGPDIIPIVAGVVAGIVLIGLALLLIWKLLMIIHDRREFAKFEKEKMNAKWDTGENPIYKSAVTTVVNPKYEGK

binding result [1]: no binding
B1: VE-cadherin EC3 (other, UniProt P33151 259-372, looked up)
chain: TQTKYTFVVPEDTRVGTSVGSLFVEDPDEPQNRMTKYSILRGDYQDAFTIETNPAHNEGIIKPMKPLDYEYIQQYSFIVEATDPTIDLRYMSPPAGNRAQVIINITDVDEPPIF
notes: domain: EC3

binding result [2]: no binding (tested: 0.16-5.0 µM)
B2: junctional adhesion molecule A (JAM-A) (other, UniProt Q9Y624 28-238, looked up)
chain: SVTVHSSEPEVRIPENNPVKLSCAYSGFSSPRVEWKFDQGDTTRLVCYNNKITASYEDRVTFLPTGITFKSVTREDTGTYTCMVSEEGGNSYGEVKVKLIVLVPPSKPTVNIPSSATIGNRAVLTCSEQDGSPPSEYTWFKDGIVMPTNPKSTRAFSNSSYVLNPTTGELVFDPLSASDTGEYSCEARNGYGTPMTSNAVRMEAVERNVGV

Binder: B3
mean fold change in the interactions [3]: 0.4 fold
mean fold change in the interactions [4]: 0.4 fold
binding result [5]: no binding
PLA spots/cell [6]: 16.4 PLA spots/cell
PLA spots/cell [7]: 22.5 PLA spots/cell
PLA spots/cell [8]: 12.3 PLA spots/cell
Kd (claudin-5 (SPR analyte)): 58.7 nM
Kd [9]: 12.6 nM
binding result (occludin): no binding (tested: 0.16-5.0 µM)
binding result (integrin β3 of HMVECs): no binding
binding result (junction protein JAM-C): no binding
binding result (Tie2): no binding
binding result (Tie1): no binding
Kd [10]: 112 nM

Binder: B4
binding result [11]: binds
